Assay [1] addresses T1, Recombinant human FcγRIIIa (V158), His-tagged (human, UniProt P08637 17-208).
T1 construct: also called FcγRIIIa allele V158; not shown: C-terminal 6-His tag
As to the kind of experiment: BLI (Octet RED96), His-tagged FcγR on anti-penta-His sensors, mAb at 2 µg/ml cross-linked with anti-human F(ab')2. Background: BLI is a label-free optical method that tracks binding on a fibre tip over time.

Assay [2] addresses T2, Recombinant human FcγRIIa (R131), His-tagged (human, UniProt P12318 34-218).
T2 construct: also called FcγRIIa allele R131
T2 sequence (looked up): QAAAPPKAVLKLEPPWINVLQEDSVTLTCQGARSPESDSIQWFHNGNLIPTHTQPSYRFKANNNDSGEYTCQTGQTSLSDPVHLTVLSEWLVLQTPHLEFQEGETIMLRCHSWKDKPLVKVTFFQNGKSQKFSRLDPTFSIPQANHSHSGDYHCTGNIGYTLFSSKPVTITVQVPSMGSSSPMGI
The description is as above.
Description: His-tagged human FcγRs ((A) FcγRIIa allele H131; (B) FcγRIIa allele R131; (C) FcγRIIIa allele F158; (D) FcγRIIIa allele V158; (E) FcγRIIb) at 2 μg/ml were captured onto anti-penta-His sensors for 6 minutes. FcγRs-loaded sensors were then exposed for 5 minutes to a solution of kinetics buffer (pH 7.1) containing 2 μg/ml of each mAb (left part of the plot) in the presence 1 μg/ml of affiniPure F(ab′)₂ Fragment Goat Anti-Human IgG, F(ab′)₂ fragment specific (to cross-link human mAbs through the Fab fragment), followed by a dissociation step in the same buffer for additional 4 minutes (right part of the plot). Association and dissociation profiles were measured in real time as change in the interference pattern using an Octet RED96 (FortéBio).
Briefly, His-tagged human FcγRs (FcγRIIa allele H131, FcγRIIa allele R131, FcγRIIAa allele F158, FcγRIIIa allele V158 and FcγRIIb) at 2 μg/ml were captured onto anti-penta-His sensors for 6 minutes. FcγR-loaded sensors were then exposed for 4 minutes to a solution of kinetics buffer (pH 7.1) containing 2 μg/ml of each mAb in the presence 1 μg/ml of affiniPure F(ab′)2 Fragment Goat Anti-Human IgG, F(ab′)2 fragment-specific (to cross-link human mAbs through the Fab fragment), followed by a dissociation step in the same buffer for 4 additional minutes (right part of the plot). Association and dissociation profiles were measured in real time as change in the interference pattern using an Octet RED96 (FortéBio).

Assay [3] addresses T3, Recombinant human FcγRIIa (H131), His-tagged (human, UniProt P12318 34-218).
T3 construct: also called FcγRIIa allele H131; not shown: C-terminal 6-His tag
T3 sequence (looked up): T2 sequence (looked up) with R134H
The assay is described as above.

The target of assay [4] is T4, Recombinant human FcγRIIIa (F158), His-tagged (human, UniProt P08637 17-208).
T4 construct: also called FcγRIIIa allele F158; not shown: C-terminal 6-His tag
The assay is described as above.

The target of assay [5] is T5, Recombinant human FcγRIIb, His-tagged (human, UniProt P31994 43-217).
T5 construct: not shown: C-terminal 6-His tag
T5 sequence (looked up): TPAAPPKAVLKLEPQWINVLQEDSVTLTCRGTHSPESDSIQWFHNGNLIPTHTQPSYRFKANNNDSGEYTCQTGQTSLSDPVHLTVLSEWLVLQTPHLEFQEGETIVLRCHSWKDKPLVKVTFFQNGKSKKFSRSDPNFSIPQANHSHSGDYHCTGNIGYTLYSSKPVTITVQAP
The description is as above.

Assay [6] concerns the target T6, Human complement component C1q (human, UniProt P02745 23-245; P02746 28-253; P02747 29-245).
T6 construct: also called human C1q; human complement protein C1q
Briefly: BLI (Octet RED96), IgG captured on anti-human Fab (CH1) sensors, C1q at 3 µg/ml.
Description: (§1) IgG-loaded sensors were then exposed for 4 minutes to a solution of kinetics buffer (pH 7.1) containing 3 μg/ml of purified human C1q (left part of the plot), followed by a dissociation step in the same buffer for additional 4 minutes (right part of the plot). Association and dissociation profiles were measured in real time as change in the interference pattern using an Octet RED96 (FortéBio).
(§2) IgG-loaded sensors were then exposed for 4 minutes to a solution of kinetics buffer (pH 7.1) containing 3 μg/ml of purified human C1q (left part of the plot), followed by a dissociation step in the same buffer for 4 additional minutes (right part of the plot). Association and dissociation profiles were measured in real time as change in the interference pattern using an Octet RED96 (FortéBio).

The target in assay [7] is T6, Human complement component C1q. Briefly: BLI (Octet RED96), IgG captured on anti-human Fab (CH1) sensors.
Description: as §1, §2

Changes are numbered by the printed parent chain.

T6 sequence (P02745 23-245 limits assumed, chain 1 of 3): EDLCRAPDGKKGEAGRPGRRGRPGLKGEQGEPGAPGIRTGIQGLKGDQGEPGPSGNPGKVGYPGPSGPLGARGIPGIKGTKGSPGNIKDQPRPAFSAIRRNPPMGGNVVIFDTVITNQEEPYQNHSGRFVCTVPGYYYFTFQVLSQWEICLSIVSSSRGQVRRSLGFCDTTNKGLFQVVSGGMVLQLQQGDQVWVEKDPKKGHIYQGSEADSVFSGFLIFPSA
T6 sequence (P02746 28-253 limits assumed, chain 2 of 3): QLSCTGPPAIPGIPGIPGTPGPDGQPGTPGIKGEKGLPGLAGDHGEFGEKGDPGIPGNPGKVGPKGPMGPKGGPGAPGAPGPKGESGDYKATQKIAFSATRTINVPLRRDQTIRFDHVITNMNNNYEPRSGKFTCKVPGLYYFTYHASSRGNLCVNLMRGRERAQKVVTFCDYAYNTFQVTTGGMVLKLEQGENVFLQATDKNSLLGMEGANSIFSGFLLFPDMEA
T6 sequence (P02747 29-245 limits assumed, chain 3 of 3): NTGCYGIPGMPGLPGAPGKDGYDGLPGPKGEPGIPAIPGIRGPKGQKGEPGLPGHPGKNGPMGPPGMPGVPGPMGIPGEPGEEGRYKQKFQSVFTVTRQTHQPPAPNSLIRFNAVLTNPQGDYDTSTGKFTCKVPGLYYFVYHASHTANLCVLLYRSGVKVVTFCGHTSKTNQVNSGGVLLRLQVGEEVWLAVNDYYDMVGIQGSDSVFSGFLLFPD
T1 sequence (P08637 17-208 F176V limits assumed): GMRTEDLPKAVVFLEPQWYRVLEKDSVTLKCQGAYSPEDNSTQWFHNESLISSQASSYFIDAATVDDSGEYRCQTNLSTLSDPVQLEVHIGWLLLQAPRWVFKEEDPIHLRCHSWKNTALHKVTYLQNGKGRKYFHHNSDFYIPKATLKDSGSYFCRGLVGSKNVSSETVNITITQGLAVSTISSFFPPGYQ
T4 sequence (P08637 17-208 limits assumed): as the sequence (P08637 17-208 F176V limits assumed) above, with V160F counted along it

B1: HBC34-V35-MLNS (antibody, human IgG1, lambda)
heavy: not shown
light: SYELTQPPSVSVSPGQTVSIPCSGDKLGNKNVAWFQHKPGQSPVLVIYEVKYRPSGIPERFSGSNSGNTATLTISGTQAMDEAAYFCQTFDSTTVVFGGGTRLTVLGQPKAAPSVTLFPPSSEELQANKATLVCLISDFYPGAVTVAWKADSSPVKAGVETTTPSKQSNNKYAASSYLSLTPEQWKSHRSYSCQVTHEGSTVEKTVAPTECS
Consider B1, for which the binding result in assay [1], in assay [2], in assay [3], in assay [4], in assay [5] and in assay [6] was “binds” throughout.

B2: HBC34-V35-MLNS-GAALIE (antibody, human IgG1, lambda)
heavy: ELQLVESGGGWVQPGGSQRLSCAASGRIFRSFYMSWVRQAPGKGLEWVATINQDGSEKLYVDSVKGRFTISRDNAKNSLFLQMNNLRVEDTAVYYCAAWSGNSGGMDVWGQGTTVSVSSASTKGPSVFPLAPSSKSTSGGTAALGCLVKDYFPEPVTVSWNSGALTSGVHTFPAVLQSSGLYSLSSVVTVPSSSLGTQTYICNVNHKPSNTKVDKKVEPKSCDKTHTCPPCPAPELLAGPSVFLFPPKPKDTLMISRTPEVTCVVVDVSHEDPEVKFNWYVDGVEVHNAKTKPREEQYNSTYRVVSVLTVLHQDWLNGKEYKCKVSNKALPLPEEKTISKAKGQPREPQVYTLPPSRDELTKNQVSLTCLVKGFYPSDIAVEWESNGQPENNYKTTPPVLDSDGSFFLYSKLTVDKSRWQQGNVFSCSVLHEALHSHYTQKSLSLSPGK
light: B1 light
For B2, the binding result was “binds” in assay [1]; “binds” in assay [2]; “binds” in assay [3]; “binds” in assay [4]; “no binding (tested: 3 µg/ml of purified human C1q)” in assay [7].
